# Target: DSV^4 VLPs (Dengue virus serotypes 1-4; Hepatitis B virus; Hepatitis B virus)
# Assay: sandwich ELISA: mAb coated, DSV^4 VLPs added, detected with peroxidase labelled anti-HBsAg
row,Substance,ELISA OD [OD]
1,3H5 (antibody),0.77
2,4G2 (antibody),0.05

# Source: patent US10189877
